Our source for the Emax and % Binding of WT values is publication PMC7785020, “A unique hormonal recognition feature of the human glucagon-like peptide-2 receptor” (Cell Research, 2020).

Where a chain is given by its changes, count along the chain named.

In assay [1] the target is T1, GLP-2R K231^2.67A (Homo sapiens, UniProt O95838, K231A).
T1 sequence (O95838 1-553 K231A): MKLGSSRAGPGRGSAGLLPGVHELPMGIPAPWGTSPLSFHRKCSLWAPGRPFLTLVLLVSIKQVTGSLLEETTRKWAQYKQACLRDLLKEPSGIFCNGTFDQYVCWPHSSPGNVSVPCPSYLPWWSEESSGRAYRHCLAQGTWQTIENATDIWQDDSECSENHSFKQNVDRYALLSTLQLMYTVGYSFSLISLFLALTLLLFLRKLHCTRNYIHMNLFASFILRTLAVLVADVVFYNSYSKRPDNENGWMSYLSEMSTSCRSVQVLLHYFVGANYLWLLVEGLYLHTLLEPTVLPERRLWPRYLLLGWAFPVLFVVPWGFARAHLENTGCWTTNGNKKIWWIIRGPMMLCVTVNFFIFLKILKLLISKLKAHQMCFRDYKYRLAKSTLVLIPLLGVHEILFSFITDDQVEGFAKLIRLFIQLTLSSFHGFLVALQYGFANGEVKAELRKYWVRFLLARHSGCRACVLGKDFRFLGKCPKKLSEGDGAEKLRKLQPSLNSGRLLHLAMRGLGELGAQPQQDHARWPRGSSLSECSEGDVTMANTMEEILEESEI
As to the kind of experiment: cAMP accumulation, K231^2.67A. The format is cell-based. On the set-up: WT (1–553); expressed in transfected cells; HEK 293T (cAMP). As to conditions: Table S3, K231A; HEK 293T, 30 min, RT; mean ± SEM, n ≥ 3 in duplicate; read-out: cAMP Emax (% WT). The procedure: (§1) HEK 293T cells were cultured in Dulbecco’s Modified Eagle’s Medium (DMEM) (Gibco, Waltham, USA) supplemented with 10% (v/v) fetal bovine serum (FBS) (Gibco) and 1% (v/v) sodium pyruvate (Gibco) at 37 °C, 5% CO2 in a humidified incubator. They were seeded onto 6-well cell culture plates and transiently transfected with different GLP-2R constructs using Lipofectamine 2000 transfection reagent (Invitrogen, Carlsbad, CA, USA). After 24 h, the transfected cells were seeded onto 384-well microtiter plates (3000 cells per well) in HBSS supplemented with 5 mM HEPES, 0.1% (w/v) bovine serum albumin (BSA) and 0.5 mM 3-isobutyl-1- methylxanthine, and stimulated with increasing concentrations of GLP-2 for 30 min at RT. Eu and Ulight were diluted by cAMP detection buffer and added to the plates separately to terminate the reaction. Plates were incubated at RT for 60 min before measuring the fluorescence intensity at 620 nm and […] by an EnVision multilabel plate reader (PerkinElmer, Boston, USA).
For orientation: Changes in cAMP serve as a functional read-out for many G protein-coupled receptors.

For assay [2], the target named is T2, GLP-2R K414^7.35A (Homo sapiens, UniProt O95838, K414A).
T2 sequence (O95838 1-553 K414A): T1 sequence (O95838 1-553 K231A) with A231K, K414A
Briefly: cAMP accumulation, K414^7.35A. The class given is cell-based. On the set-up: GLP-2R (1-553) (WT); expressed in transfected cells; host or cells: HEK 293T. The conditions noted are these: Table S3, K414A; HEK 293T, 30 min, RT; mean ± SEM, n ≥ 3 in duplicate; read-out: cAMP Emax (% WT). As to the method:
as §1

For assay [3], the target named is GLP-2R H268^3.37A (human) (UniProt O95838). As to the kind of experiment: radioligand binding; competition on transiently transfected COS-7 cells: unlabeled GLP-2(1–33) 0.1 nM to 1 μM against 10–15 pM [125I]GLP-2(1–33, M10Y); 4 h, 4 °C; 50 mM HEPES pH 7.4, 1 mM CaCl2, 5 mM MgCl2, 0.5% BSA; three-parameter logistic fit.
Sequence of GLP-2R H268^3.37A (human) (O95838 whole entry H268A): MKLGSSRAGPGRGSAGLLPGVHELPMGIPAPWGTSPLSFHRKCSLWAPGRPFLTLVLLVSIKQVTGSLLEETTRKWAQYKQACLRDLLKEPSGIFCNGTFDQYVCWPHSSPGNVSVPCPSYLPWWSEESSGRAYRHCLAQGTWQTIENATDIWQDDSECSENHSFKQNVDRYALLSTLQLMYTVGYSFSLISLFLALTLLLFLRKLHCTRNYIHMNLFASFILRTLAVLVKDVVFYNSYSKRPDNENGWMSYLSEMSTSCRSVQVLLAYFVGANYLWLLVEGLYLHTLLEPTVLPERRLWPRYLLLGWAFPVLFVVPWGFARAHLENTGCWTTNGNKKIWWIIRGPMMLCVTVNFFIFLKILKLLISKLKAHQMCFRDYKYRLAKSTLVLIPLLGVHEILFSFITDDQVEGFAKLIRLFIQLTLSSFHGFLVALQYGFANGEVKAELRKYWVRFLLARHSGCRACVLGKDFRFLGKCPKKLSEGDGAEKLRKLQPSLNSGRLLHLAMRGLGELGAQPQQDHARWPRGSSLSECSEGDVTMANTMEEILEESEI
For assay [4], the target named is GLP-2R ECL1 (poly-alanine) (human) (UniProt O95838). Described as above.
Sequence of GLP-2R ECL1 (poly-alanine) (human) (O95838 whole entry): as the sequence (O95838 whole entry H268A) above, with A268H counted along it
Assay [5] concerns the target GLP-2R ECL1 (GLP-1R) (UniProt O95838). The assay is described as above.
For assay [6], the target named is GLP-2R N334^ECL2 A (human) (UniProt O95838). The description is as above.
Sequence of GLP-2R N334^ECL2 A (human) (O95838 whole entry N334A): as the sequence (O95838 whole entry H268A) above, with A268H, N334A counted along it
Assay [7] deals with GLP-2R W340^5.36A (human) (UniProt O95838). Described as above.

Sequence of GLP-2R ECL1 (GLP-1R) (O95838 whole entry): as the sequence (O95838 whole entry H268A) above, with A268H counted along it

What is called Emax is the maximal effect, on the per cent scale that the assay sets. As to `CC[C@H](C)[C@H](NC(=O)[C@H](Cc1ccccc1)NC(=O)[C@H](CC(=O)O)NC(=O)[C@H](CCCNC(=N)N)NC(=O)[C@H](C)NC(=O)[C@H](C)NC(=O)[C@H](CC(C)C)NC(=O)[C@H](CC(N)=O)NC(=O)[C@H](CC(=O)O)NC(=O)[C@H](CC(C)C)NC(=O)[C@@H](NC(=O)[C@@H](NC(=O)[C@H](CC(N)=O)NC(=O)[C@H](CCSC)NC(=O)[C@H](CCC(=O)O)NC(=O)[C@H](CC(=O)O)NC(=O)[C@H](CO)NC(=O)[C@H](Cc1ccccc1)NC(=O)[C@H](CO)NC(=O)CNC(=O)[C@H](CC(=O)O)NC(=O)[C@H](C)NC(=O)[C@@H](N)Cc1c[nH]cn1)[C@@H](C)O)[C@@H](C)CC)C(=O)N[C@@H](CC(N)=O)C(=O)N[C@@H](Cc1c[nH]c2ccccc12)C(=O)N[C@@H](CC(C)C)C(=O)N[C@H](C(=O)N[C@@H](CCC(N)=O)C(=O)N[C@H](C(=O)N[C@@H](CCCCN)C(=O)N[C@H](C(=O)N[C@H](C(=O)N[C@@H](CC(=O)O)C(=O)O)[C@@H](C)O)[C@@H](C)CC)[C@@H](C)O)[C@@H](C)CC` [Human GLP-2 (1–33)], the Emax was determined as 105 ± 3% in assay [1] and 110 ± 3.3% in assay [2].

In the case of [^125I]GLP-2(1–33, M10Y) (peptide), the % Binding of WT in assay [3] is 2.1%; in assay [4] it was 3%; in assay [5], 3.4%; in assay [6], 2.4%; in assay [7] it was 7.3%.
